Literature values in article PMC8699243.
Where two headings read alike, the source gives them in different places. One block for each substance: values may come before it.

How the values were obtained:
S100A4 (Homo sapiens) = S100A4 (Homo sapiens) (UniProt P26447)
S100A10 (Homo sapiens) = S100A10 (Homo sapiens) (UniProt P60903)
t-PA (Homo sapiens) [1] = biological target: t-PA (Homo sapiens) (UniProt P00750)
[2] = biological target: plasminogen (Homo sapiens) (UniProt P00747)
t-PA (Homo sapiens) [3] = biological target: t-PA (Homo sapiens) (UniProt P00750); remark: listed apart in the source
[4] = biological target: plasminogen (Homo sapiens) (UniProt P00747); remark: listed apart in the source

Chain of UniProt P00747 (P00747 20-810): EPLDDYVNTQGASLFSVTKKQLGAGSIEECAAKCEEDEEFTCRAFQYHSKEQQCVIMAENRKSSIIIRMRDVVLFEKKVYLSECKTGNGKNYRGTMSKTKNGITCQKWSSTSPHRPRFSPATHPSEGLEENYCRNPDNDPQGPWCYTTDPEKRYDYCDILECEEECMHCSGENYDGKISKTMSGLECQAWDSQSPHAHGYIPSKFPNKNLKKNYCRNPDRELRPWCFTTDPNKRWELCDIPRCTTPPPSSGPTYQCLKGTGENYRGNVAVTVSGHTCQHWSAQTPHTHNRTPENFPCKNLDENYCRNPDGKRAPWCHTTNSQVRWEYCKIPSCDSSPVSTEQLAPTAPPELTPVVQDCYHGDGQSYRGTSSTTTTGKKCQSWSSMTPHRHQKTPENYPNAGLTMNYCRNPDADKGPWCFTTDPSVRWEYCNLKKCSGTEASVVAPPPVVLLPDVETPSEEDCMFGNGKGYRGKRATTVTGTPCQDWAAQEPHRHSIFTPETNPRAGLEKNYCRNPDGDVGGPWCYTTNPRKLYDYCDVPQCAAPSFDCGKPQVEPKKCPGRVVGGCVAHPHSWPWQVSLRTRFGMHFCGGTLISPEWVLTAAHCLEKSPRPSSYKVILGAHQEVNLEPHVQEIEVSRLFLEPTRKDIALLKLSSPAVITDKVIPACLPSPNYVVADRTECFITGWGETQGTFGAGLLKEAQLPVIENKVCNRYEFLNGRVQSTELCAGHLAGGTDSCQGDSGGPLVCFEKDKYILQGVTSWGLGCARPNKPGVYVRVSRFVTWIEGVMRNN
Chain of UniProt P00750 (P00750 36-562): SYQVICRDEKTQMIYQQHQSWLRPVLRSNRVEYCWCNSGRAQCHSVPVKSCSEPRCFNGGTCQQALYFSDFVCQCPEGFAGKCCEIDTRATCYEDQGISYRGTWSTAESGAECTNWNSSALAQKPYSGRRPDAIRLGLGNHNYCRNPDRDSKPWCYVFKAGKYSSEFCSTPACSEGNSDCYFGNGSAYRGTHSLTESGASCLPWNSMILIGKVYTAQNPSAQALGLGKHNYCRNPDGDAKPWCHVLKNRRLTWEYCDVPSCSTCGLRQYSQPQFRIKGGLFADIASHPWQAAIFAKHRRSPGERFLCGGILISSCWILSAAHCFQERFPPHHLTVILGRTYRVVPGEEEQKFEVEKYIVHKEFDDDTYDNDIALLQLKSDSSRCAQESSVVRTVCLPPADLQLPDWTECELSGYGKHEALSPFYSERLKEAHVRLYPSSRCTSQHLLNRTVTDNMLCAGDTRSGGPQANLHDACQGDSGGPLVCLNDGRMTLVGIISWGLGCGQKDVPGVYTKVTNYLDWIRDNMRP
Chain of UniProt P26447 (P26447 2-101): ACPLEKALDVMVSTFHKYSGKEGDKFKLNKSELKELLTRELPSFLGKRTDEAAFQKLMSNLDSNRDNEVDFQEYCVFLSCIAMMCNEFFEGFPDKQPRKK

- Kd (S100A4 (Homo sapiens)): 5 µM
- Kd (S100A10 (Homo sapiens)): 0.013 µM
Substance: Annexin A2 (from UniProt P07355)

- Kd (t-PA (Homo sapiens) [1]): 0.45 µM
- Kd [2]: 1.81 µM
Substance: S100A10 (from UniProt P60903)

- Kd (t-PA (Homo sapiens) [3]): 0.68 µM
- Kd [4]: 0.11 µM
Substance: AIIt (Annexin A2/S100A10 heterotetramer) (from UniProt P07355)
